Data reported in publication PMC10980208, “A novel micellular fluorogenic substrate for quantitating the activity of 1-phosphatidylinositol 4,5-bisphosphate phosphodiesterase gamma (PLCγ) enzymes” (PLOS ONE, 2024).

B1: PLCγ2 (Homo sapiens) (protein)
chain: MSTTVNVDSLAEYEKSQIKRALELGTVMTVFSFRKSTPERRTVQVIMETRQVAWSKTADKIEGFLDIMEIKEIRPGKNSKDFERAKAVRQKEDCCFTILYGTQFVLSTLSLAADSKEDAVNWLSGLKILHQEAMNASTPTIIESWLRKQIYSVDQTRRNSISLRELKTILPLINFKVSSAKFLKDKFVEIGAHKDELSFEQFHLFYKKLMFEQQKSILDEFKKDSSVFILGNTDRPDASAVYLHDFQRFLIHEQQEHWAQDLNKVRERMTKFIDDTMRETAEPFLFVDEFLTYLFSRENSIWDEKYDAVDMQDMNNPLSHYWISSSHNTYLTGDQLRSESSPEAYIRCLRMGCRCIELDCWDGPDGKPVIYHGWTRTTKIKFDDVVQAIKDHAFVTSSFPVILSIEEHCSVEQQRHMAKAFKEVFGDLLLTKPTEASADQLPSPSQLREKIIIKHKKLGPRGDVDVNMEDKKDEHKQQGELYMWDSIDQKWTRHYCAIADAKLSFSDDIEQTMEEEVPQDIPPTELHFGEKWFHKKVEKRTSAEKLLQEYCMETGGKDGTFLVRESETFPNDYTLSFWRSGRVQHCRIRSTMEGGTLKYYLTDNLTFSSIYALIQHYRETHLRCAEFELRLTDPVPNPNPHESKPWYYDSLSRGEAEDMLMRIPRDGAFLIRKREGSDSYAITFRARGKVKHCRINRDGRHFVLGTSAYFESLVELVSYYEKHSLYRKMRLRYPVTPELLERYNMERDINSLYDVSRMYVDPSEINPSMPQRTVKALYDYKAKRSDELSFCRGALIHNVSKEPGGWWKGDYGTRIQQYFPSNYVEDISTADFEELEKQIIEDNPLGSLCRGILDLNTYNVVKAPQGKNQKSFVFILEPKQQGDPPVEFATDRVEELFEWFQSIREITWKIDTKENNMKYWEKNQSIAIELSDLVVYCKPTSKTKDNLENPDFREIRSFVETKADSIIRQKPVDLLKYNQKGLTRVYPKGQRVDSSNYDPFRLWLCGSQMVALNFQTADKYMQMNHALFSLNGRTGYVLQPESMRTEKYDPMPPESQRKILMTLTVKVLGARHLPKLGRSIACPFVEVEICGAEYDNNKFKTTVVNDNGLSPIWAPTQEKVTFEIYDPNLAFLRFVVYEEDMFSDPNFLAHATYPIKAVKSGFRSVPLKNGYSEDIELASLLVFCEMRPVLESEEELYSSCRQLRRRQEELNNQLFLYDTHQNLRNANRDALVKEFSVNENQLQLYQEKCNKRLREKRVSNSKFYS
B2: PLCγ1 (Homo sapiens) (protein)
chain: AGAASPCANGCGPGAPSDAEVLHLCRSLEVGTVMTLFYSKKSQRPERKTFQVKLETRQITWSRGADKIEGAIDIREIKEIRPGKTSRDFDRYQEDPAFRPDQSHCFVILYGMEFRLKTLSLQATSEDEVNMWIKGLTWLMEDTLQAPTPLQIERWLRKQFYSVDRNREDRISAKDLKNMLSQVNYRVPNMRFLRERLTDLEQRSGDITYGQFAQLYRSLMYSAQKTMDLPFLEASTLRAGERPELCRVSLPEFQQFLLDYQGELWAVDRLQVQEFMLSFLRDPLREIEEPYFFLDEFVTFLFSKENSVWNSQLDAVCPDTMNNPLSHYWISSSHNTYLTGDQFSSESSLEAYARCLRMGCRCIELDCWDGPDGMPVIYHGHTLTTKIKFSDVLHTIKEHAFVASEYPVILSIEDHCSIAQQRNMAQYFKKVLGDTLLTKPVEISADGLPSPNQLKRKILIKHKKLAEGSAYEEVPTSMMYSENDISNSIKNGILYLEDPVNHEWYPHYFVLTSSKIYYSEETSSDQGNEDEEEPKEVSSSTELHSNEKWFHGKLGAGRDGRHIAERLLTEYCIETGAPDGSFLVRESETFVGDYTLSFWRNGKVQHCRIHSRQDAGTPKFFLTDNLVFDSLYDLITHYQQVPLRCNEFEMRLSEPVPQTNAHESKEWYHASLTRAQAEHMLMRVPRDGAFLVRKRNEPNSYAISFRAEGKIKHCRVQQEGQTVMLGNSEFDSLVDLISYYEKHPLYRKMKLRYPINEEALEKIGTAEPDYGALYEGRNPGFYVEANPMPTFKCAVKALFDYKAQREDELTFIKSAIIQNVEKQEGGWWRGDYGGKKQLWFPSNYVEEMVNPVALEPEREHLDENSPLGDLLRGVLDVPACQIAIRPEGKNNRLFVFSISMASVAHWSLDVAADSQEELQDWVKKIREVAQTADARLTEGKIMERRKKIALELSELVVYCRPVPFDEEKIGTERACYRDMSSFPETKAEKYVNKAKGKKFLQYNRLQLSRIYPKGQRLDSSNYDPLPMWICGSQLVALNFQTPDKPMQMNQALFMTGRHCGYVLQPSTMRDEAFDPFDKSSLRGLEPCAISIEVLGARHLPKNGRGIVCPFVEIEVAGAEYDSTKQKTEFVVDNGLNPVWPAKPFHFQISNPEFAFLRFVVYEEDMFSDQNFLAQATFPVKGLKTGYRAVPLKNNYSEDLELASLLIKIDIFPAKENGDLSPFSGTSLRERGSDASGQLFHGRAREGSFESRYQQPFEDFRISQEHLADHFDSRERRAPRRTRVNGDNRL

Substrate: CCCCCCCCCCCCCCCCOc1cc(COC(=O)Nc2ccc3c(C(F)(F)F)cc(=O)oc3c2)ccc1OP(=O)(O)O[C@@H]1[C@H](O)[C@H](O)[C@@H](OP(=O)(O)O)[C@H](OP(=O)(O)O)[C@H]1O
Assay: purified protein
Conditions: Ca2+

Protein | Km [µM] | Vmax [µmol/min/mg] | kcat [s⁻¹] | kcat/Km [M⁻¹ s⁻¹]
B1 | 4.6 ± 0.8 | 0.019 | 0.045 ± 0.00333 | 10000 ± 1670
B2 | 27.7 ± 14.5 | 0.35 | 0.833 ± 0.367 | 32700 ± 6670
